# From patent publication US20220403001A1, “PDE5 DERIVED REGULATORY CONSTRUCTS AND METHODS OF USE IN IMMUNOTHERAPY” (Obsidian Therapeutics, Inc., priority 2018, published 2022)
# How the values were obtained:
# hPDE5 mutants [1] = target: T1, hPDE5 mutants (Homo sapiens, UniProt O76074); experiment: GFP FACS analysis of hPDE5 mutant library clones in NIH3T3 cell pools; conditions: experiment 1; for Stabilization ratio: GFP intensity 10 μM vardenafil vs DMSO; for Destabilizing mutation co-efficient: GFP intensity mutant vs PDE5 wildtype construct in absence of ligand; for MFI 10 μM VDF / MFI DMSO: GFP, NIH3T3 cell pools; for MFI 10 μM VDF: 10 μM vardenafil 24 hr; for MFI DMSO: no ligand (DMSO)
# Experimental: These constructs were packaged into lentivirus, transduced into NIH3T3 cells and select stable cell pools were derived as described below. […] Lentiviral stocks were used for transduction of NIH3T3 cells and subsequent cell pool selection. The day before transduction, NIH3T3 cells (1.8×10^6) were seeded in a T-25 flask and allowed to reach 60-70% confluency (˜1 day). The growth medium in the T-25 flask was then replaced with 1 mL virus (quickly thawed in a 37° C. water bath) and 5 μg/mL polybrene. […] Transduction medium was removed the following day and replaced with 5 mL fresh medium. At 48 hr after transduction, the medium was replaced with media containing 1 μg/mL puromycin. This puromycin medium was replaced every 3-4 days until cell pools were established (˜2 weeks).
# The mean fluorescence intensity (MFI) of GFP at 100 μM concentration treatment was set as 100% hPDE5 stabilization effect (HPE), while DMSO treatment was set as 0% effect (ZPE) of hPDE5 stabilization. The effect of the compound on hPDE5 stabilization was calculated based on the following formula: % PDE5 stabilization effect=(MFI-ZPE)/(HPE-ZPE)×100.
# Plots of the % effect versus concentration were generated with Graphpad Prism 5 and EC50 values were calculated using a four-parameter nonlinear regression model.
# Select PDE5 clones from both experiment 1 and experiment 2 were directly compared. […] The stabilization ratio was calculated as the fold change in GFP intensity in ligand treated samples compared to treatment with DMSO (i.e. in the absence of ligand) with the same construct.
# hPDE5 mutants [2] = target: T1, hPDE5 mutants; experiment: GFP MFI by FACS in HCT116 cells transduced with hPDE5 constructs; assay type: cell-based; conditions: HCT-116
# Experimental: (§1) Desirable qualities of a DD include, low expression of the SRE in the absence of ligand and ligand dependent stabilization of the SRE. Constructs were generated using DDs linked to GFP using an SG linker. […] The mean fluorescence intensity (MFI) of GFP was analyzed by FACS. […] Destabilizing mutation coefficient less than 1 are desirable.
# (§2) Mean fluorescence intensity (MFI) was measured by FACS. […] Destabilizing mutation coefficient ratios less than 1 are desirable.
# (§3) Mean fluorescence intensity (MFI) was measured by FACS. […] Destabilizing mutation co-efficient ratios less than 1 are desirable.
# (§4) Mean fluorescence intensity (MFI) was measured by FACS. […] Destabilizing mutation coefficient less than 1 are desirable.
# as §4
# (§5) Mean fluorescence intensity (MFI) of GFP was measured by FACS.
# (§6) Mean fluorescence intensity (MFI) was measured by FACS.
# (§7) The media containing the ligand was removed and fresh media without the ligand was added.
# (§8) The properties of the DDs were analyzed in the presence and absence of ligands via FACS as previously described.
# (§9) GFP fluorescence was measured by FACS.
# (§10) The properties of the DDs were analyzed via FACS both in the presence and absence of ligands.
# as §9
# hPDE5 mutants [3] = experiment: as above; assay type: cell-based, human
# Experimental: as §1, §2, §3, §4, §4, §5, §6, §7, §8, §9, §10, §9
# [4] = Off-kinetics, time 50 hrs (ligand removed at 48 h)
# [5] = Off-kinetics, time 52 hrs (ligand removed at 48 h)
# [6] = Off-kinetics, time 54 hrs (ligand removed at 48 h)
# [7] = Off-kinetics, time 56 hrs (ligand removed at 48 h)
# [8] = Off-kinetics, time 60 hrs (ligand removed at 48 h)
# [9] = Off-kinetics, time 72 hrs (ligand removed at 48 h)
# [10] = Off-kinetics, time 80 hrs (ligand removed at 48 h)
# [11] = Off-kinetics, time 96 hrs (ligand removed at 48 h)
substance,measurement,setting,value
"LibC000003: hPDE5 (Amino acid 535-860 of WT, D724G, K848N), DD generated by random mutagenesis",Stabilization ratio,hPDE5 mutants [1],2.9
same,Destabilizing mutation co-efficient,hPDE5 mutants [1],0.11
same,MFI 10 μM VDF,hPDE5 mutants [1],1870
same,MFI DMSO,hPDE5 mutants [1],656
"LibC000002: hPDE5 (Amino acid 535-860 of WT, I700F, E796G), DD generated by random mutagenesis",Stabilization ratio,hPDE5 mutants [1],3.2
same,Destabilizing mutation co-efficient,hPDE5 mutants [1],0.05
same,MFI 10 μM VDF,hPDE5 mutants [1],981
same,MFI DMSO,hPDE5 mutants [1],309
OT-001216: hPDE5 wildtype construct linked to GFP,Sildenafil Stabilization ratio,"hPDE5 mutants [2]; 10 μM, 48 h",1.03
same,Vardenafil Stabilization ratio,"hPDE5 mutants [2]; 10 μM, 48 h",1.04
same,MFI Sildenafil,"hPDE5 mutants [2]; GFP, 10 μM Sildenafil 48 h",66860
same,MFI Vardenafil,"hPDE5 mutants [2]; GFP, 10 μM Vardenafil 48 h",67388
same,MFI DMSO,"hPDE5 mutants [3]; GFP, DMSO 48 h, HCT-116",64942
same,Stabilization ratio,"hPDE5 mutants [3]; Off-kinetics, time 48 hrs (after 48 h ligand treatment)",2.24
same,MFI,"hPDE5 mutants [3]; Off-kinetics, time 48 hrs (after 48 h ligand treatment), HCT 116",102137
same,MFI,hPDE5 mutants [3]; [4],97225
same,Stabilization ratio,hPDE5 mutants [3]; [4],2.14
same,MFI,hPDE5 mutants [3]; [5],96264
same,Stabilization ratio,hPDE5 mutants [3]; [5],2.12
same,MFI,hPDE5 mutants [3]; [6],95410
same,Stabilization ratio,hPDE5 mutants [3]; [6],2.10
same,MFI,hPDE5 mutants [3]; [7],81733
same,Stabilization ratio,hPDE5 mutants [3]; [7],1.80
same,MFI,hPDE5 mutants [3]; [8],84323
same,Stabilization ratio,hPDE5 mutants [3]; [8],1.85
same,MFI,hPDE5 mutants [3]; [9],70151
same,Stabilization ratio,hPDE5 mutants [3]; [9],1.54
same,MFI,hPDE5 mutants [3]; [10],63208
same,Stabilization ratio,hPDE5 mutants [3]; [10],1.39
same,MFI,hPDE5 mutants [3]; [11],55918
same,Stabilization ratio,hPDE5 mutants [3]; [11],1.23
same,MFI,"hPDE5 mutants [3]; Sildenafil 30 μM, 24 h, HCT116",75478
same,Stabilization ratio,"hPDE5 mutants [3]; Sildenafil 30 μM, 24 h, HCT116",1.22
same,MFI,"hPDE5 mutants [3]; Tadalafil 100 μM, 24 h, HCT116",58468
same,Stabilization ratio,"hPDE5 mutants [3]; Tadalafil 100 μM, 24 h, HCT116",1.60
same,MFI,"hPDE5 mutants [3]; Vardenafil 30 μM, 24 h, HCT116",70898
same,Stabilization ratio,"hPDE5 mutants [3]; Vardenafil 30 μM, 24 h, HCT116",1.14
"LibC000018: hPDE5 (Amino acid 535-860 of WT, N605Y, I715K), DD generated by random mutagenesis",Stabilization ratio,hPDE5 mutants [1],3.0
same,Destabilizing mutation co-efficient,hPDE5 mutants [1],0.18
same,MFI 10 μM VDF,hPDE5 mutants [1],3102
same,MFI DMSO,hPDE5 mutants [1],1038
"LibC000016: hPDE5 (Amino acid 535-860 of WT, Q743L), DD generated by random mutagenesis",Stabilization ratio,hPDE5 mutants [1],2.4
same,Destabilizing mutation co-efficient,hPDE5 mutants [1],0.51
same,MFI 10 μM VDF,hPDE5 mutants [1],6869
same,MFI DMSO,hPDE5 mutants [1],2895
"LibC000023: hPDE5 (Amino acid 535-860 of WT, E858V), DD generated by random mutagenesis",Stabilization ratio,hPDE5 mutants [1],1.4
same,Destabilizing mutation co-efficient,hPDE5 mutants [1],0.77
same,MFI 10 μM VDF,hPDE5 mutants [1],6121
same,MFI DMSO,hPDE5 mutants [1],4386
"LibC000019: hPDE5 (Amino acid 535-860 of WT, F564I, N662Y, H685L, L693P, F736I), DD generated by random mutagenesis",Stabilization ratio,hPDE5 mutants [1],0.9
same,Destabilizing mutation co-efficient,hPDE5 mutants [1],0.06
same,MFI 10 μM VDF,hPDE5 mutants [1],285
same,MFI DMSO,hPDE5 mutants [1],320
"LibC000014: hPDE5 (Amino acid 535-860 of WT, A767E), DD generated by random mutagenesis",Stabilization ratio,hPDE5 mutants [1],2.8
same,Destabilizing mutation co-efficient,hPDE5 mutants [1],0.44
same,MFI 10 μM VDF,hPDE5 mutants [1],6998
same,MFI DMSO,hPDE5 mutants [1],2500
"LibC000011: hPDE5 (Amino acid 535-860 of WT, S562G, L727P, R847T), DD generated by random mutagenesis",Stabilization ratio,hPDE5 mutants [1],1.2
same,Destabilizing mutation co-efficient,hPDE5 mutants [1],0.01
same,MFI 10 μM VDF,hPDE5 mutants [1],67
same,MFI DMSO,hPDE5 mutants [1],57
